The values that follow come from patent US20250043022A1 (JIANGSU HENGRUI PHARMACEUTICALS, published 2025).

B1: hu41H2L3 (antibody, human IgG1, kappa, V domains shown)
VH: EVQLVQSGAEVKKPGASVKVSCKASGYTFTSYGISWVRQAPGQGLEWMGEIFPRRGNTYYNEKFRGRVTLTADKSTSTAYMELRSLRSDDTAVYYCARVFDGYYNYAMDYWGQGTTVTVSS
VL: DIQMTQSPSSLSASVGDRVTITCRASQDIGSSLNWLQQKPGGAIKRLIYATSSLDSGVPSRFSGSRSGSDYTLTISSLQPEDFATYYCLQYASSPYTFGGGTKVEIKR
B2: hu43H2L1 (antibody, human IgG1, kappa, V domains shown)
VH: EVQFVESGGGLVQPGGSLRLSCAASGFTFSNYWMNWVRQAPGKGLEWVAQVRLKSDNYATHYAESVKGRFTISREDAKNSAYLQMNSLRAEDTAVYYCSENYYGPAGPFDFWGQGTTVTVSS
VL: DIQMTQSPSSVSASVGDRVTITCKASQNVHTSVAWYQQKPGKSPKLLIYSASNRYSGVPSRFSGSGSGTDFTLTISSLQPEDFATYYCQQYSSYPLTFGQGTKLEIKR
B3: hu46H2L1 (antibody, human IgG1, kappa, V domains shown)
VH: EVQLVESGGGLVKPGGSLRLSCAASGFTFSNYGMSWVRQAPGKGLEWVSTIGSGGGYTYYSDSVKGRFTISRDNAKNSLYLQMNSLRAEDTAVYYCVRHPQIGYWGQGTLVTVSS
VL: DIQMTQSPSSLSASVGDRVTITCKASQSVGTAVAWYQQKPGKAPKLLIYSASSRYTGVPSRFSGSGSGTDFTLTISSLQPEDFATYYCHQYSSYPLTFGGGTKVEIKR
B4: hu43H3L1 (antibody, human IgG1, kappa, V domains shown)
VH: EVQFVESGGGLVQPGGSLRLSCAASGFTFSNYWMNWLRQAPGKGLEWVAQVRLKSDNYATHYAESVKGRFTISREDAKNSAYLQMNSLRAEDTAVYYCSENYYGPAGPFDFWGQGTTVTVSS
VL: DIQMTQSPSSVSASVGDRVTITCKASQNVHTSVAWYQQKPGKSPKLLIYSASNRYSGVPSRFSGSGSGTDFTLTISSLQPEDFATYYCQQYSSYPLTFGQGTKLEIKR
B5: hu46H1L1 (antibody, human IgG1, kappa, V domains shown)
VH: EVQLVESGGGLVKPGGSLRLSCAASGFTFSNYGMSWVRQAPGKGLEWVSTIGSGGGYTYYSDSVKGRFTISRDNAKNSLYLQMNSLRAEDTAVYYCARHPQIGYWGQGTLVTVSS
VL: DIQMTQSPSSLSASVGDRVTITCKASQSVGTAVAWYQQKPGKAPKLLIYSASSRYTGVPSRFSGSGSGTDFTLTISSLQPEDFATYYCHQYSSYPLTFGGGTKVEIKR
B6: hu46H1L2 (antibody, human IgG1, kappa, V domains shown)
VH: EVQLVESGGGLVKPGGSLRLSCAASGFTFSNYGMSWVRQAPGKGLEWVSTIGSGGGYTYYSDSVKGRFTISRDNAKNSLYLQMNSLRAEDTAVYYCARHPQIGYWGQGTLVTVSS
VL: DIQMTQSPSSLSASVGDRVTITCKASQSVGTAVAWYQQKPGKAPKLLIYSASSRYTGVPSRFSGSGSGTDFTLTISSLQPEDFADYFCHQYSSYPLTFGGGTKVEIKR
B7: hu46H1L3 (antibody, human IgG1, kappa, V domains shown)
VH: EVQLVESGGGLVKPGGSLRLSCAASGFTFSNYGMSWVRQAPGKGLEWVSTIGSGGGYTYYSDSVKGRFTISRDNAKNSLYLQMNSLRAEDTAVYYCARHPQIGYWGQGTLVTVSS
VL: DIQMTQSPSSLSASVGDRVTITCKASQSVGTAVAWYQQKPGKAPKLLIYSASSRYTGVPDRFSGSGSGTDFTLTISSLQPEDFADYFCHQYSSYPLTFGGGTKVEIKR
B8: hu43H1L1 (antibody, human IgG1, kappa, V domains shown)
VH: EVQFVESGGGLVQPGGSLRLSCAASGFTFSNYWMNWVRQAPGKGLEWVAQVRLKSDNYATHYAESVKGRFTISRDNAKNSAYLQMNSLRAEDTAVYYCSENYYGPAGPFDFWGQGTTVTVSS
VL: DIQMTQSPSSVSASVGDRVTITCKASQNVHTSVAWYQQKPGKSPKLLIYSASNRYSGVPSRFSGSGSGTDFTLTISSLQPEDFATYYCQQYSSYPLTFGQGTKLEIKR

The target of the assay is T1, human PSMA on cells (Cho-hPSMA, CHO-K1 cells overexpressing full-length human PSMA) (human, UniProt Q04609 1-750).
T1 construct: whole, on cells; also called cell surface PSMA; PSMA-expressing Lncap cells
T1 sequence (Q04609 whole entry): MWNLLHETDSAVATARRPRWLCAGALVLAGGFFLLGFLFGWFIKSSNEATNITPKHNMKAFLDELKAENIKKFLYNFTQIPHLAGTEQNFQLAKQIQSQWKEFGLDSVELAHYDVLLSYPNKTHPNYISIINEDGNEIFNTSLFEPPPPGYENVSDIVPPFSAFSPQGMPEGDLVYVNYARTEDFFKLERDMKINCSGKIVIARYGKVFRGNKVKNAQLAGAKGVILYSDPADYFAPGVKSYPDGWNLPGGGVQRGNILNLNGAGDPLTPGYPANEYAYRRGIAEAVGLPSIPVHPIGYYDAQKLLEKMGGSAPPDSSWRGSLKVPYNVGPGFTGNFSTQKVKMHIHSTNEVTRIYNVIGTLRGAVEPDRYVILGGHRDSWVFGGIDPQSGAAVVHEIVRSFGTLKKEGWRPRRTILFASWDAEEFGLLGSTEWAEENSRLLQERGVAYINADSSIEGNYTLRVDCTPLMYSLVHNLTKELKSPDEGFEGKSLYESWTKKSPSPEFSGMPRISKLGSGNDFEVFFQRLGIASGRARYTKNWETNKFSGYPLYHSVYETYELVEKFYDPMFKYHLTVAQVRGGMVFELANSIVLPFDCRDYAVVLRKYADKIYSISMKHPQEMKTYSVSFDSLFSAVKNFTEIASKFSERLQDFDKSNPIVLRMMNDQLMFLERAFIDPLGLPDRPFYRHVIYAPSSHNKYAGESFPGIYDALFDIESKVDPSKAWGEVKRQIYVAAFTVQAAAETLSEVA
The experiment in a line: cell ELISA (OD450), Cho-hPSMA cells. The procedure: Experiment 2: Cells were cultured and inoculated onto a cell plate using the same method as in Experiment 1. The antibodies were serially diluted, and the antibody solutions were added to the cell plate at 100 μL/well. The plate was incubated at 4° C. for 1 h and then washed. An HRP-Goat Anti-human IgG (H+L) secondary antibody dilution (1:8000) was added to the cell plate at 100 μL/well, and the plate was incubated at 4° C. for 1 h and then washed by centrifugation. After color development with TMB, the reaction was stopped with 0.1 M sulfuric acid, and OD450 values were measured.
(In general: In an ELISA, binding on a coated surface is turned into a signal by an enzyme label.)
Turning to B1, the response was half-maximal at 1.21 µg/mL (EC50).
The figure for B2 is 6.17 µg/mL; for B3 it is 0.0788 µg/mL.
The figure for B4 is 2.83 µg/mL.
The figure for B5 is 0.136 µg/mL.
B6: the concentration for a half-maximal effect (EC50) (usually the concentration giving half of the maximal effect) worked out at 0.0813 µg/mL.
The figure for B7 is 0.123 µg/mL; for B8 it is 6.22 µg/mL.
